Measured values published in the supplement of paper PMC10724198.
± gives the standard deviation of the averaged measurements.

System: Saccharomyces cerevisiae
Assay: protein stability index of tFT-peptide fusion (C-terminal peptide) (PSI (0-1 scale)); higher = more stable (slower turnover)
Details: genetic background: wild type; temperature: 30 C
Method: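 Multiplexed protein stability (MPS) profiling in S. cerevisiae. Random 12-aa peptides (tFT-X12 library) are fused to the C-terminus of a sfGFP-mCherry tandem fluorescent timer, after mCherry and a GGGS linker. Cells are FACS-sorted into 8 mCherry/sfGFP bins and deep-sequenced. The protein stability index (PSI) is the read-weighted bin average, scaled from 0 (unstable) to 1 (stable). Only peptides with >10 reads are reported; cells were grown at 30 °C in SC-His with glucose.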
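Further: PSI is a weighted mean of sequencing reads over stability bins, variants kept only with over 10 reads, mCherry proximal and sfGFP distal, peptide attached via GGGS linker.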

Sequence | protein stability index
CFSMGKRGLRGR | 0.686 ± 0.026
CFSSLRFCLPSV | 0.686 ± 0.00021
CFVSFFWRCFFG | 0.515 ± 0.045
CFWTSFVWPGCA | 0.684 ± 0.00095
CGAGIYTRCTGR | 0.6613 ± 0.001
CGALRLPSSREV | 0.604 ± 0.021
CGGKTEKRKKYT | 0.6062 ± 0.0034
CGGRKTPPPPRH | 0.688 ± 0.054
CGGRWGTYYRRV | 0.7 ± 0.042
CGGSCLQDGGWA | 0.787 ± 0.1
CGHMSTSNANLS | 0.687 ± 0.051
CGLGGLYLVLHD | 0.671 ± 0.067
CGLRVVGVVGAP | 0.712 ± 0.062
CGLSYSAVDLGV | 0.684 ± 0.01
CGPRPDSIDVGF | 0.608 ± 0.052
CGRFCLQGEYIV | 0.705 ± 0.12
CGRPRGVEPGGA | 0.754 ± 0.12
CGSDRINACVRI | 0.727 ± 0.032
CGSVEVVVVRGS | 0.587 ± 0.054
CGTPDLGLLRAT | 0.74 ± 0.054
CGVSPPHANLVS | 0.569 ± 0.036
CGVVSSSVDCIN | 0.699 ± 0.028
CHYSSFISFVVV | 0.594 ± 0.024
CICFLDGCSFVN | 0.755 ± 0.14
CIFCCGWCLDRL | 0.719 ± 0.058

Sequence | protein stability index
CIFFSPFSFLLP | 0.654 ± 0.035
CILPFFFFVSPD | 0.652 ± 0.084
CIRGFQVRGYFK | 0.791 ± 0.19
CIVDFLGISSGI | 0.659 ± 0.057
CKKGCTEVKNAV | 0.719 ± 0.084
CLAPSIPPPLSS | 0.702 ± 0.036
CLFPPTARHSFP | 0.778 ± 0.036
CLFPPYDYFFPF | 0.734 ± 0.091
CLGPDWWARRSI | 0.772 ± 0.064
CLGRLRLMSSCR | 0.688 ± 0.044
CLLAAMTFYTVR | 0.711 ± 0.029
CLPSLPPFPASL | 0.738 ± 0.064
CLQRPVSAGMVT | 0.676 ± 0.027
CLSGVLDFLLFL | 0.648 ± 0.0085
CLSILRNVVPII | 0.723 ± 0.08
CLSLVCGFPVVY | 0.605 ± 0.0099
CLTHLLPPAFPC | 0.694 ± 0.018
CMEYFMHFVKGD | 0.701 ± 0.06
CMFRCCLRSLVL | 0.639 ± 0.0064
CMGASRTRILTR | 0.681 ± 0.046
CNCGGRGCGWMR | 0.651 ± 0.025
CNDAYKSKLARL | 0.696 ± 0.034
CNGVGRLPGTPG | 0.685 ± 0.0086
CNQRRWRGRKGY | 0.67 ± 0.01
CPCAWFSFLCFS | 0.666 ± 0.0066

Sequence | protein stability index
CPPPFLCSPFVA | 0.669 ± 0.022
CPPPPPRPPLPP | 0.689 ± 0.056
CPPVRLSLPPSL | 0.68 ± 0.019
CPSSFSALSNSR | 0.671 ± 0.049
CQFHHHPDLTIK | 0.609 ± 0.077
CRASGGVSCGAS | 0.639 ± 0.046
CRCTKVVVFGYP | 0.667 ± 0.022
CRGPTQFAGPAP | 0.68 ± 0.088
CRILSPLPAIFV | 0.5298 ± 0.0045
CRLILLVCNGAG | 0.521 ± 0.027
CRSGSGGGIRGR | 0.741 ± 0.011
CRSRRPFGSDPI | 0.69 ± 0.019
CRTGHCRLTSKM | 0.708 ± 0.019
CRVWRAPSGWVG | 0.646 ± 0.03
CRWRLGRLARCA | 0.515 ± 0.0084
CSATVLSNCTFP | 0.687 ± 0.051
CSEHFLIDTYPA | 0.679 ± 0.05
CSLGCSLSALDS | 0.663 ± 0.025
CSMGGWPTERGI | 0.6968 ± 0.0039
CSPGLSGCVSYV | 0.665 ± 0.12
CSRDWRCNVRPV | 0.715 ± 0.022
CSSEGFSLASMI | 0.707 ± 0.025
CSWNLLAHPPAQ | 0.744 ± 0.0093
CSYIQTSKTVVS | 0.756 ± 0.082
CTAVGFISFWMA | 0.629 ± 0.081

Sequence | protein stability index
CTIAPSIFFTRG | 0.704 ± 0.11
CTVWGLWRGWTA | 0.7389 ± 0.0041
CVAGSGRGGVKR | 0.6327 ± 0.0037
CVCHWTALCIQI | 0.512 ± 0.013
CVFSEMIVCDGG | 0.566 ± 0.049
CVGQYVHWDLLV | 0.549 ± 0.011
CVIGDKRRSKAI | 0.6808 ± 0.0021
CVLPVSVIWVLR | 0.575 ± 0.018
CVLVGGVPAGGG | 0.6174 ± 0.0028
CVLWLISLLPDR | 0.563 ± 0.068
CVRPAPGSGGWQ | 0.6429 ± 0.0041
CVTLPPHPLPPP | 0.6623 ± 0.0058
CWGGRSYVYNIG | 0.662 ± 0.016
CWNVLVPFDEVI | 0.6 ± 0.08
CWSRLADSFVSL | 0.683 ± 0.05
CYGFCVRTYPAI | 0.684 ± 0.037
CYLSVGVASWNS | 0.6816 ± 0.0026
DAACDSGLSAEW | 0.722 ± 0.015
DAAFRMTRLVVR | 0.6172 ± 0.0015
DAGRETGRLVGG | 0.708 ± 0.032
DAIHSPALLASP | 0.715 ± 0.092
DALVQVFANVGA | 0.6629 ± 0.0059
DALWLAFFDVID | 0.711 ± 0.068
DARLSPVRNRLF | 0.652 ± 0.17
DASVIPAKPRRS | 0.69 ± 0.041

Sequence | protein stability index
DAVVPSSTVPLL | 0.7001 ± 0.0022
DCDVLCGSGRRR | 0.703 ± 0.026
DCLFQSKLNTYD | 0.676 ± 0.041
DCNQLRGRAFRL | 0.719 ± 0.034
DCPAVLLYAVNW | 0.501 ± 0.054
DCVACFFFYSGG | 0.599 ± 0.0099
DCWAGGGLCGWG | 0.719 ± 0.05
DDCFCGRFWVVV | 0.6787 ± 0.0032
DEEVGWGRGGGW | 0.673 ± 0.011
DENLYGGFRTSM | 0.725 ± 0.0078
DFCPCPRWFLRR | 0.715 ± 0.086
DFIAGGSRPFLV | 0.715 ± 0.015
DFIEINFDLFPP | 0.6382 ± 0.00098
DFLRCPPLFEFS | 0.721 ± 0.087
DFSLQILALCYF | 0.558 ± 0.018
DFVRVVGDLRWE | 0.587 ± 0.041
DGAVCSAFASIF | 0.701 ± 0.0089
DGGGGGRAPRVR | 0.726 ± 0.1
DGGIVTVSLGWC | 0.662 ± 0.064
DGKNQGKAEGTK | 0.693 ± 0.041
DGSPLGSIQQAP | 0.673 ± 0.013
DGTRVSFLGHKG | 0.665 ± 0.053
DGYYRIVRPEAI | 0.626 ± 0.018
DHPFFCWDGVVK | 0.687 ± 0.069
DHSWPSTDRVLL | 0.676 ± 0.0096

Sequence | protein stability index
DHVSTVEQKLFF | 0.701 ± 0.031
DIISSKENWVEI | 0.68 ± 0.059
DINHTSKKKIYI | 0.663 ± 0.015
DINNDQKCTLMK | 0.71 ± 0.013
DIRRWQWWFMVR | 0.613 ± 0.082
DKCRWWRHGVWR | 0.687 ± 0.019
DKDSTSRYSKPW | 0.725 ± 0.022
DKFEEENIKKKK | 0.74 ± 0.026
DKGIHKREKFFT | 0.734 ± 0.0054
DKNVREGDRETR | 0.685 ± 0.017
DKRHQSALSFFI | 0.736 ± 0.0089
DKYFRYKEERTY | 0.766 ± 0.16
DLERRKGTGVWR | 0.6366 ± 0.0051
DLGARWLFLLQT | 0.622 ± 0.012
DLLWASLCLRSY | 0.679 ± 0.021
DLPATSAETAPK | 0.699 ± 0.058
DLPRCTLSVEDT | 0.703 ± 0.0078
DLPVIGHRLPLF | 0.684 ± 0.012
DLPVPRPGTLQV | 0.655 ± 0.045
DLRFLQFGFIPW | 0.752 ± 0.043
DLSMIPEWICIV | 0.547 ± 0.054
DLSSFGRLGCQG | 0.871 ± 0.037
DMHTPATDSPLP | 0.783 ± 0.016
DMVSLGLAILIT | 0.492 ± 0.021
DMWSMFSFLYYV | 0.507 ± 0.012

Sequence | protein stability index
DNKEIEQTIRNK | 0.6304 ± 0.0041
DPGKWMRCHICE | 0.752 ± 0.035
DPPPPSPPASMP | 0.663 ± 0.036
DPQQRSNPKPII | 0.661 ± 0.032
DPRRNGAPLRSI | 0.676 ± 0.039
DPTPLALSPDHP | 0.63 ± 0.057
DPYYGFRMRIPF | 0.691 ± 0.026
DQVSGYNVWFGT | 0.698 ± 0.028
DRAPPPPRSSPL | 0.733 ± 0.076
DRLGADCPLLSG | 0.734 ± 0.028
DRLTLEKKGRGM | 0.684 ± 0.016
DRPNIGIKPKRA | 0.613 ± 0.086
DRPYPTTFRSSR | 0.66 ± 0.017
DRRTLSLDLCGS | 0.644 ± 0.045
DRSMRPISKRWE | 0.668 ± 0.037
DRSTGVNKSFPS | 0.7 ± 0.074
DRSTIKIAIHRQ | 0.656 ± 0.056
DRVHVSNGYLEF | 0.684 ± 0.1
DRVRGLCIPNGP | 0.681 ± 0.043
DSIVWVGVTYFL | 0.553 ± 0.012
DSLSVSLSLVRG | 0.696 ± 0.028
DSPLSHPPSPAP | 0.6235 ± 0.0019
DSPPHPPPASAP | 0.714 ± 0.017
DSRRDYLHLVFT | 0.646 ± 0.023
DSSEGRVRIRIR | 0.714 ± 0.063

Sequence | protein stability index
DSSFPKSVSKQA | 0.679 ± 0.024
DSSLDWGREARA | 0.649 ± 0.075
DSTWGLGLFSVP | 0.64 ± 0.033
DSVRRMAEGKRE | 0.672 ± 0.029
DSVVGFCGYWGG | 0.706 ± 0.088
DSWGPGVSSRRW | 0.732 ± 0.044
DTRNKHTKSKCQ | 0.741 ± 0.051
DTSPSPPPLSVL | 0.693 ± 0.017
DTTSSPPLPLLV | 0.623 ± 0.035
DTVYSRAIAANA | 0.545 ± 0.012
DVAWHNYRISGK | 0.673 ± 0.015
DVDYGEIDYQIK | 0.708 ± 0.011
DVGSRGPPHTDG | 0.687 ± 0.074
DVILVSLPPPSV | 0.676 ± 0.049
DVLASSSVWFLI | 0.624 ± 0.0057
DVLGCFDYLLFR | 0.623 ± 0.03
DVLRLRSVFFCG | 0.631 ± 0.047
DVPKSGLEVWRR | 0.627 ± 0.067
DVQISSGRGVCS | 0.672 ± 0.054
DVRMGCVGVSNI | 0.71 ± 0.0088
DVRNDSSLIIQI | 0.688 ± 0.053
